Experimental data published in article PMC11290353.

Target: RNA Pol II large subunit (CTD) (UniProt P08775)
Test: HA IP; blot Pol II S5P, S2P
Settings: reference: HA-CMTR1 wild type; sites S26,S28,T30,S31,S46,S49,S51,S53,S55,T57,S63,S64,S66,S75,S89

Substance: CMTR1 (from UniProt Q8N1G2) HA-CMTR1 15A
- binding against the reference: weaker
